# From patent US20250197448A1, “CYCLOPEPTIBODIES AND USES THEREOF” (University of Rochester, priority 2022, published 2025)
# Starred links: 1 amine or outer side, 2 acyl side, 3 side chain; linkers in the order of their positions; H or OH if unused. Positions of bridges follow the written chain, without caps; N, C: chain ends. Non-standard residues stand in square brackets, D forms with d. No end group written: not given here. pCaaF = p-(2-chloroacetamido)-phenylalanine, O=C(CCl)Nc1ccc(C[C@H](N[*:1])C(=O)[*:2])cc1
# Legend:
# PD-L1 = molecular target: T1, PD-L1 (Homo sapiens, UniProt Q9NZQ7); assay: in vitro PD-L1 binding assay (plate-immobilized PD-L1); conditions: Q6 vs. Q12 spacer
# T1 construct: poly-histidine (C); made in house
# T1 sequence (Q9NZQ7 19-290): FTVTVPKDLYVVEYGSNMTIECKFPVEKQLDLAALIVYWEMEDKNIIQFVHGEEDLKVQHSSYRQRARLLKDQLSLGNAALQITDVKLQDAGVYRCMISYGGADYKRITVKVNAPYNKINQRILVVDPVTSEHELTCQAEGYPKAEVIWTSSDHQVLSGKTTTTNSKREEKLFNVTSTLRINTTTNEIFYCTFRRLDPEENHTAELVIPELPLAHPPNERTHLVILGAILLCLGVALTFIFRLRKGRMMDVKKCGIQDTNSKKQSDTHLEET
# Procedure: Streptavidin Binding Assay. For the streptavidin binding assays, streptavidin-coated plates (Sigma-Aldrich) were used. For the Keap1, Shh and PD-L1 binding assay, target protein was immobilized on microtiter plates by incubating 100 μL of a 4 μM protein solution in PBS buffer overnight at 4° C., followed by decanting the protein solution and blocking with 0.5% bovine serum albumin in PBS for 2 h at room temperature. After washing (3×150 μL of PBS with 0.05% Tween-20), each well was incubated with 100 μL of purified FLAG-tagged cyclopeptibody at varying concentrations for 1 hour at room temperature. After washing three times with wash buffer, each well was incubated with 100 μL of 1:2500 dilution of HRP-conjugate mouse anti-FLAG polyclonal antibody (Sigma-Aldrich) for 1 hour at room temperature. After washing three times with wash buffer, 100 μL of 2.2 mM o-phenylenediamine dihydrochloride, 4.2 mM urea hydrogen peroxide, 100 mM dibasic sodium phosphate, and 50 mM sodium citrate, pH 5.0, were added to each well, followed by measurement of the absorbance at 450 nm after 10-20 min using a Tecan Infinite 1000 plate reader. Equilibrium dissociation constants (Kp) were determined by fitting the dose-response curves to a 1:1 binding isotherm equation via nonlinear regression. using SigmaPlot. Mean values and standard deviations were calculated from experiments performed in triplicate. […]
# [1] = molecular target: T2, PD-L1 expressed on the surface of MDA-MB-231 cells (Homo sapiens, UniProt Q9NZQ7); assay: confocal microscopy imaging of MDA-MB-231 cells; format: cell-based; conditions: anti-Fc-FITC staining
# T2 construct: known to express high levels of PD-L1 on their surface; endogenous in cells; host or cells: MDA-MB-231
# T2 sequence (Q9NZQ7 19-290): as above
# Procedure: Cyclopeptibodies can be applied for detection and imaging of a target protein in cells and other biological systems. To illustrate this aspect of the invention, breast cancer cells MDA-MB-231 cells were treated with PD-L1 targeting cRK10 (pCaaF)-Tras-Fc. MDA-MB-231 cells are known to express high levels of PD-L1 on the cell membrane. After treatment with cRK10 (pCaaF)-Tras-Fc, the cyclopeptibody bound to the surface PD-L1 was labeled with fluorescein-conjugated anti-human Fc antibody (‘anti-Fc-FITC’) and cells were imaged using confocal microscopy.
# [2] = molecular target: T3, PD-L1 receptor on MDA-MB-231 cells (Homo sapiens, UniProt Q9NZQ7); assay: flow cytometry of MDA-MB-231 cells, PD-L1 labeling with FITC anti-human IgG Fc; format: cell-based
# T3 construct: known to express high levels of PD-L1 on their surface; endogenous in cells; host or cells: MDA-MB-231
# T3 sequence (Q9NZQ7 19-290): as above
# Procedure: The cells were then incubated with fluorescein-conjugated anti-human IgG Fc antibody and analyzed by flow cytometry. The same experiment was carried out in parallel using commercially available anti-PD-L1 antibody as positive control and various negative controls.
# Flow Cytometry Analysis. […] When confluent, media was aspirated, cells were washed once with 1×DPBS (no calcium, no magnesium) (Gibco). Adherent cells were detached from the petri dish with 1 mL of accutase (Gibco) pre-warmed to 37° C., followed by incubated for 5 min at 37° C. Cells were spun down using centrifugation. Supernatant was removed and cells were washed three times with staining buffer (1×PBS with 0.5% BSA). Cells were resuspended in Eppendorf tubes in 100 μL PBS at a concentration of 107cells per mL. […] Eppendorf tubes were then placed on the platform shaker for gently shaking for 1 hour at room temperature. After 1 hour, cells were spun down using centrifugation, then supernatant was removed. […] Cells were washed as described above, then resuspended in 400 μL staining buffer. […] The cells of interest were gated using Forward and Side scatter (FSC/SSC). 10,000 singlet events were collected for each specimen.
substance,measurement,setting,value
FLAG-(GS)2-TYLCGAISLAZKAQIKESL-(Q)6-(Fc)^1-H6 (DYKDDDDKGSGSTYLCGAISLA[pCaaF]KAQIKESLQQQQQQ-{Fc-H6}; thioether 16-23) [cRK10-Tras-Fc],higher PD-L1 binding affinity compared to FLAG-cRK10-Q12-Tras-Fc-His,PD-L1,six-fold higher
same,recognition of surface PD-L1 by fluorescent imaging,[1],able to efficiently recognize PD-L1
same,median fluorescence intensity (MFI) relative to positive control,"[2]; MDA-MB-231 cells, 0.09 mg/mL",comparable median fluorescence intensity (MFI) to that of the positive control anti-PD-L1 antibody
same,staining / labeling of PD-L1 receptors on MDA-MB-231 cells (in words),[2]; concentration not given at the place,selective labeling of PD-L1 receptors
